Reference: patent publication CN114773459A (UNIV SHENZHEN, dated 2022)

Target: 新型冠状病毒(SARS-CoV-2) S1蛋白 (野生型) (SARS-CoV-2, UniProt P0DTC2 16-685)

B1: 纳米抗体Nb-H6 (VHH)
VHH: QLVESGGGLVQAGDSLRLSCAASERALSSFHMGWFRQAPGKQRAFVAAIKWRDGTTYYADSVKGRFTISRDNAKNTVYLQMNSLEPEDTAVYYCYYRGRWGTYWGQGTQVTVSS
- IC50: 9.8 µM
